Measured values: the supplement of paper PMC5998384

What was measured:
HeLa Kyoto [1] = test: thermal stability score vs G1/S (z-score of summed log2 fold changes over temperatures); higher = more thermally stable than in G1/S
HeLa Kyoto [2] = test: solubility change mitosis vs G1/S (difference of NP-40 vs SDS log2 ratios) (log2 ratio difference); higher = more soluble in mitosis
HeLa Kyoto [3] = test: melting temperature (median over replicates), in situ; higher = more thermally stable
HeLa Kyoto [4] = test: solubility in G1/S (NP-40 vs SDS abundance) (log2 ratio); higher = more soluble; conditions: cell cycle stage: G1/S
[5] = cell cycle stage: early G1 (4.5 h after nocodazole release)
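Throughout, for melting temperature (median over replicates), in situ: HeLa Kyoto cells synchronized by double thymidine or nocodazole block, proteins quantified by TMT10plex mass spectrometry, three independent biological replicates.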
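Throughout, for solubility change mitosis vs G1/S (difference of NP-40 vs SDS log2 ratios): synchronized HeLa Kyoto cells (double thymidine block for G1/S, nocodazole release for mitosis), protein amounts in NP-40 versus SDS lysates quantified by mass spectrometry, three biological replicates.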
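Throughout, for solubility in G1/S (NP-40 vs SDS abundance): HeLa Kyoto cells arrested at G1/S by double thymidine block, proteins quantified by TMT10plex mass spectrometry in mild NP-40 versus SDS extracts, three biological replicates.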
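Throughout, for thermal stability score vs G1/S (z-score of summed log2 fold changes over temperatures): synchronized HeLa Kyoto cells, proteins quantified by TMT10plex mass spectrometry, three biological replicates, mitosis taken 0.5 h after nocodazole release, G1/S directly after double thymidine block.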

Chain of DBNL (chain, as listed by the source): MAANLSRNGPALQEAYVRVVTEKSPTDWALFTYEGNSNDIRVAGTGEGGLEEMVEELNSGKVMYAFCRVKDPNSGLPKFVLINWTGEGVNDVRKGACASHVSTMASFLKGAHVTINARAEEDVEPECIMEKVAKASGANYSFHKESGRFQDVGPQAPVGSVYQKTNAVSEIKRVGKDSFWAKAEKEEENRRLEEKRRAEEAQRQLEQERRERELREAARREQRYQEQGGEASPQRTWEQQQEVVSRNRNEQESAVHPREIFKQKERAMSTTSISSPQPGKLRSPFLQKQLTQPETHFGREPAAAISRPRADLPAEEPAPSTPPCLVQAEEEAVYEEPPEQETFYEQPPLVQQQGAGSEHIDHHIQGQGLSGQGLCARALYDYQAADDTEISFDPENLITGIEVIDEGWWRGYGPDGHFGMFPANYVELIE

Substance	thermal stability score (HeLa Kyoto [1]; [5])	thermal stability score (HeLa Kyoto [1]; cell cycle stage: mitosis)	solubility change mitosis (log2) (HeLa Kyoto [2])	melting temperature (HeLa Kyoto [3]; cell cycle stage: G1/S)	melting temperature (HeLa Kyoto [3]; cell cycle stage: mitosis)	solubility in G1/S (log2) (HeLa Kyoto [4])
MALRPGAGSGGGGAAGAGAGSAGGGGFMFPVAGGIRPPQAGLMPMQQQGFPMVSVMQPNMQGIMGMNYSSQMSQGPIAMQAGIPMGPMPAAGMPYLGQAPFLGMRPPGPQYTPDMQKQFAEEQQKRFEQQQKLLEEERKRRQFEEQKQKLRLLSSVKPKTGEKSRDDALEAIKGNLDGFSRDAKMHPTPASHPKKPGPSLEEKFLVSCDISTSGQEQIKLNTSEVGHKALGPGSSKKYPSLMASNGVAVDGCVSGTTTAEAENTSDQNLSIEESGVGVFPSQDPAQPRMPPWIYNESLVPDAYKKILETTMTPTGIDTAKLYPILMSSGLPRETLGQIWALANRTTPGKLTKEELYTVLAMIAVTQRGVPAMSPDALNQFPAAPIPTLSGFSMTLPTPVSQPTVIPSGPAGSMPLSLGQPVMGINLVGPVGGAAAQASSGFIPTYPANQVVKPEEDDFQDFQDASKSGSLDDSFSDFQELPASSKTSNSQHGNSAPSLLMPLPGTKALPSMDKYAVFKGIAADKSSENTVPPGDPGDKYSAFRELEQTAENKPLGESFAEFRSAGTDDGFTDFKTADSVSPLEPPTKDKTFPPSFPSGTIQQKQQTQVKNPLNLADLDMFSSVNCSSEKPLSFSAVFSTSKSVSTPQSTGSAATMTALAATKTSSLADDFGEFSLFGEYSGLAPVGEQDDFADFMAFSNSSISSEQKPDDKYDALKEEASPVPLTSNVGSTVKGGQNSTAASTKYDVFRQLSLEGSGLGVEDLKDNTPSGKSDDDFADFHSSKFSSINSDKSLGEKAVAFRHTKEDSASVKSLDLPSIGGSSVGKEDSEDALSVQFDMKLADVGGDLKHVMSDSSLDLPTVSGQHPPAADIEDLKYAAFGSYSSNFAVSTLTSYDWSDRDDATQGRKLSPFVLSAGSGSPSATSILQKKETSFGSSENITMTSLSKVTTFVSEDALPETTFPALASFKDTIPQTSEQKEYENRDYKDFTKQDLPTAERSQEATCPSPASSGASQETPNECSDDFGEFQSEKPKISKFDFLVATSQSKMKSSEEMIKSELATFDLSVQGSHKRSLSLGDKEISRSSPSPALEQPFRDRSNTLNEKPALPVIRDKYKDLTGEVEENERYAYEWQRCLGSALNVIKKANDTLNGISSSSVCTEVIQSAQGMEYLLGVVEVYRVTKRVELGIKATAVCSEKLQQLLKDIDKVWNNLIGFMSLATLTPDENSLDFSSCMLRPGIKNAQELACGVCLLNVDSRSRKEEKPAEEHPKKAFNSETDSFKLAYGGHQYHASCANFWINCVEPKPPGLVLPDLL [SYNRG]	0.188	1.39	-0.164	49.9 °C	49.7 °C	0.0486
MSCCDLAAAGQLGKASIMASDCEPALNQAEGRNPTLERYLGALREAKNDSEQFAALLLVTKAVKAGDIDAKTRRRIFDAVGFTFPNRLLTTKEAPDGCPDHVLRALGVALLACFCSDPELAAHPQVLNKIPILSTFLTARGDPDDAARRSMIDDTYQCLTAVAGTPRGPRHLIAGGTVSALCQAYLGHGYGFDQALALLVGLLAAAETQCWKEAEPDLLAVLRGLSEDFQKAEDASKFELCQLLPLFLPPTTVPPECYRDLQAGLARILGSKLSSWQRNPALKLAARLAHACGSDWIPAGSSGSKFLALLVNLACVEVRLALEETGTEVKEDVVTACYALMELGIQECTRCEQSLLKEPQKVQLVSVMKEAIGAVIHYLLQVGSEKQKEPFVFASVRILGAWLAEETSSLRKEVCQLLPFLVRYAKTLYEEAEEANDLSQQVANLAISPTTPGPTWPGDALRLLLPGWCHLTVEDGPREILIKEGAPSLLCKYFLQQWELTSPGHDTSVLPDSVEIGLQTCCHIFLNLVVTAPGLIKRDACFTSLMNTLMTSLPALVQQQGRLLLAANVATLGLLMARLLSTSPALQGTPASRGFFAAAILFLSQSHVARATPGSDQAVLALSPEYEGIWADLQELWFLGMQAFTGCVPLLPWLAPAALRSRWPQELLQLLGSVSPNSVKPEMVAAYQGVLVELARANRLCREAMRLQAGEETASHYRMAALEQCLSEP [NCDN]	1.7	2.44	-0.084	49.8 °C	50.2 °C	0.191
MAAAGRLPSSWALFSPLLAGLALLGVGPVPARALHNVTAELFGAEAWGTLAAFGDLNSDKQTDLFVLRERNDLIVFLADQNAPYFKPKVKVSFKNHSALITSVVPGDYDGDSQMDVLLTYLPKNYAKSELGAVIFWGQNQTLDPNNMTILNRTFQDEPLIMDFNGDLIPDIFGITNESNQPQILLGGNLSWHPALTTTSKMRIPHSHAFIDLTEDFTADLFLTTLNATTSTFQFEIWENLDGNFSVSTILEKPQNMMVVGQSAFADFDGDGHMDHLLPGCEDKNCQKSTIYLVRSGMKQWVPVLQDFSNKGTLWGFVPFVDEQQPTEIPIPITLHIGDYNMDGYPDALVILKNTSGSNQQAFLLENVPCNNASCEEARRMFKVYWELTDLNQIKDAMVATFFDIYEDGILDIVVLSKGYTKNDFAIHTLKNNFEADAYFVKVIVLSGLCSNDCPRKITPFGVNQPGPYIMYTTVDANGYLKNGSAGQLSQSAHLALQLPYNVLGLGRSANFLDHLYVGIPRPSGEKSIRKQEWTAIIPNSQLIVIPYPHNVPRSWSAKLYLTPSNIVLLTAIALIGVCVFILAIIGILHWQEKKADDREKRQEAHRFHFDAM [ITFG1]	0.328	0.713	-0.259	55.9 °C	57.5 °C	0.327
MNNQKQQKPTLSGQRFKTRKRDEKERFDPTQFQDCIIQGLTETGTDLEAVAKFLDASGAKLDYRRYAETLFDILVAGGMLAPGGTLADDMMRTDVCVFAAQEDLETMQAFAQVFNKLIRRYKYLEKGFEDEVKKLLLFLKGFSESERNKLAMLTGVLLANGTLNASILNSLYNENLVKEGVSAAFAVKLFKSWINEKDINAVAASLRKVSMDNRLMELFPANKQSVEHFTKYFTEAGLKELSEYVRNQQTIGARKELQKELQEQMSRGDPFKDIILYVKEEMKKNNIPEPVVIGIVWSSVMSTVEWNKKEELVAEQAIKHLKQYSPLLAAFTTQGQSELTLLLKIQEYCYDNIHFMKAFQKIVVLFYKAEVLSEEPILKWYKDAHVAKGKSVFLEQMKKFVEWLKNAEEESESEAEEGD [BZW1]	2.93	6.17	-0.105	49.3 °C	48.8 °C	0.625
DBNL	-0.295	-0.854	-0.0864	49.5 °C	50.5 °C	0.177
MSATAAARKRGKPASGAGAGAGAGKRRRKADSAGDRGKSKGGGKMNEEISSDSESESLAPRKPEEEEEEELEETAQEKKLRLAKLYLEQLRQQEEEKAEARAFEEDQVAGRLKEDVLEQRGRLQKLVAKEIQAPASADIRVLRGHQLSITCLVVTPDDSAIFSAAKDCSIIKWSVESGRKLHVIPRAKKGAEGKPPGHSSHVLCMAISSDGKYLASGDRSKLILIWEAQSCQHLYTFTGHRDAVSGLAFRRGTHQLYSTSHDRSVKVWNVAENSYVETLFGHQDAVAALDALSRECCVTAGGRDGTVRVWKIPEESQLVFYGHQGSIDCIHLINEEHMVSGADDGSVALWGLSKKRPLALQREAHGLRGEPGLEQPFWISSVAALLNTDLVATGSHSSCVRLWQCGEGFRQLDLLCDIPLVGFINSLKFSSSGDFLVAGVGQEHRLGRWWRIKEARNSVCIIPLRRVPVPPAAGS [RRP9]	-3.65	-9.84	0.596	59.7 °C	56.5 °C	-1.11
